Data as given in patent US20060211610A1 (IPSEN PHARMA S A S, published 2006).
Non-standard residues stand in square brackets, D forms with d. Phe(3,4,5-F3) = N[C@@H](Cc1cc(F)c(F)c(F)c1)C(=O)O; Ac6c = NC1(C(=O)O)CCCCC1

T1: Y2 receptor (human, UniProt P49146 1-381)
T1 construct: whole, on cells; Assayed as membrane homogenates of SK-N-BE2 cells, not intact cells
T1 sequence (looked up): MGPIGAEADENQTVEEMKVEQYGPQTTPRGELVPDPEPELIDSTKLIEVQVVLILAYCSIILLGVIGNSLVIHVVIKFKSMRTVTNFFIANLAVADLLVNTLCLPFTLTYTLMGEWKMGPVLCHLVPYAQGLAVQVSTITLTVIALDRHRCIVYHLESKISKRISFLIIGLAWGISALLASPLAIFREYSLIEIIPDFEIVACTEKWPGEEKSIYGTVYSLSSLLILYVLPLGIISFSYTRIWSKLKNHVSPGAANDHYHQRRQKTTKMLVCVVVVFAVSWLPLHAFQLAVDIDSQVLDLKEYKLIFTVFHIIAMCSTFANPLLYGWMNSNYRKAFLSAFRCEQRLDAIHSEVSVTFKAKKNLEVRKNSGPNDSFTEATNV

T2: Y1 receptor (human, UniProt P25929 1-384)
T2 construct: whole, on cells; Assayed as membrane homogenates of SK-N-MC cells, not intact cells; also called NPY Y1
T2 sequence (looked up): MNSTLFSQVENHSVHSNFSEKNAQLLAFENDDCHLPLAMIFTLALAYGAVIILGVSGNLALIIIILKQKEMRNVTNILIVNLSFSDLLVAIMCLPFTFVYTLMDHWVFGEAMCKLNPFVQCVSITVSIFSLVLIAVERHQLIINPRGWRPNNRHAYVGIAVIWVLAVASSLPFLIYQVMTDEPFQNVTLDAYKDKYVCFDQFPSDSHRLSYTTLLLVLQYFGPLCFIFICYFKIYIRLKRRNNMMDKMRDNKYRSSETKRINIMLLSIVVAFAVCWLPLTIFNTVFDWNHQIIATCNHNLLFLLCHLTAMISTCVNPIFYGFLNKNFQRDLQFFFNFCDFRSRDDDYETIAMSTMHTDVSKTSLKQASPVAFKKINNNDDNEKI

T3: Y2 receptor (human), P49146
T3 chain: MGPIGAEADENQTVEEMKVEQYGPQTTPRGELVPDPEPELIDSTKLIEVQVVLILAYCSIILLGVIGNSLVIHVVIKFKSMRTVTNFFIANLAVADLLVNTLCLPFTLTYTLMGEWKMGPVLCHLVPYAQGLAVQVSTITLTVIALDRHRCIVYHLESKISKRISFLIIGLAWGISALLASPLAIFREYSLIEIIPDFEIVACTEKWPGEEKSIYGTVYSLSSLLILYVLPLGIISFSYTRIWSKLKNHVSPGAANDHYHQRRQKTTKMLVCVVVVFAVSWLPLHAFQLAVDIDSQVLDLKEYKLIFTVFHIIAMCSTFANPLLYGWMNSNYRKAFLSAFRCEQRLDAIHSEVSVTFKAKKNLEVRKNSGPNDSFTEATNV

T4: Y1 receptor (human), P25929
T4 chain: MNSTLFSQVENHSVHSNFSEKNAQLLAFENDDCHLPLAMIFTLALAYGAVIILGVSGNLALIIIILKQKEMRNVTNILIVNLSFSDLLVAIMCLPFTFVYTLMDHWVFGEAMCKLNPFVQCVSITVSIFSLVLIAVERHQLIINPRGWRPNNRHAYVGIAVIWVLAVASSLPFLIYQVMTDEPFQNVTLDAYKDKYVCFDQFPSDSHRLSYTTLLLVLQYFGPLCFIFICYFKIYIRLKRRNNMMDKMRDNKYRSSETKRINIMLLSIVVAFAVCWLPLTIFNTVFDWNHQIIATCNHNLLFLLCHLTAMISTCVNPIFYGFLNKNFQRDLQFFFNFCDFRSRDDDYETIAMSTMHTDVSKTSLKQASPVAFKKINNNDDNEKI

B1: Ac-[A6C^28, Leu^31]hPYY(24-36)NH2 (peptide)
peptide: Ac-LRHY[Ac6c]NLLTRQRY-NH2
SMILES: CC(=O)N[C@@H](CC(C)C)C(=O)N[C@@H](CCCNC(=N)N)C(=O)N[C@@H](Cc1c[nH]cn1)C(=O)N[C@@H](Cc1ccc(O)cc1)C(=O)NC1(C(=O)N[C@@H](CC(N)=O)C(=O)N[C@@H](CC(C)C)C(=O)N[C@@H](CC(C)C)C(=O)N[C@H](C(=O)N[C@@H](CCCNC(=N)N)C(=O)N[C@@H](CCC(N)=O)C(=O)N[C@@H](CCCNC(=N)N)C(=O)N[C@@H](Cc2ccc(O)cc2)C(N)=O)[C@@H](C)O)CCCCC1
notes: Also carries Leu at 31 (residue 8 of the peptide), already in the entry
B2: Ac-[A6C^31]hPYY(24-36)NH2 (peptide)
peptide: Ac-LRHYLNL[Ac6c]TRQRY-NH2
SMILES: CC(=O)N[C@@H](CC(C)C)C(=O)N[C@@H](CCCNC(=N)N)C(=O)N[C@@H](Cc1c[nH]cn1)C(=O)N[C@@H](Cc1ccc(O)cc1)C(=O)N[C@@H](CC(C)C)C(=O)N[C@@H](CC(N)=O)C(=O)N[C@@H](CC(C)C)C(=O)NC1(C(=O)N[C@H](C(=O)N[C@@H](CCCNC(=N)N)C(=O)N[C@@H](CCC(N)=O)C(=O)N[C@@H](CCCNC(=N)N)C(=O)N[C@@H](Cc2ccc(O)cc2)C(N)=O)[C@@H](C)O)CCCCC1
notes: Synthetic analog of human PYY(24-36)
B3: Ac-[(3,4,5-F)Phe^27]hPYY(22-36)NH2 (peptide)
peptide: Ac-ASLRH[Phe(3,4,5-F3)]LNLVTRQRY-NH2
SMILES: CC(=O)N[C@@H](C)C(=O)N[C@@H](CO)C(=O)N[C@@H](CC(C)C)C(=O)N[C@@H](CCCNC(=N)N)C(=O)N[C@@H](Cc1c[nH]cn1)C(=O)N[C@@H](Cc1cc(F)c(F)c(F)c1)C(=O)N[C@@H](CC(C)C)C(=O)N[C@@H](CC(N)=O)C(=O)N[C@@H](CC(C)C)C(=O)N[C@H](C(=O)N[C@H](C(=O)N[C@@H](CCCNC(=N)N)C(=O)N[C@@H](CCC(N)=O)C(=O)N[C@@H](CCCNC(=N)N)C(=O)N[C@@H](Cc1ccc(O)cc1)C(N)=O)[C@@H](C)O)C(C)C

How the values were obtained:
Y2 receptor = target: T1, Y2 receptor; test: radioligand competition against [125I]PYY(3-36), SK-N-BE2 membranes, Cheng-Prusoff
Experimental: (§1) The final pellets were resuspended in approximately 20 ml of 50 mM Tris-HCl containing 5.0 mM MgCl₂, 0.1 mg/ml bacitracin, and 0.1% BSA (Buffer B), and held on ice for the receptor binding assay.
(§2) For assay, aliquots (0.4 ml) of the foregoing suspensions were incubated with 0.05 ml of 0.05 nM [¹²⁵I-Leu³¹, Pro³⁴]PYY (Y1 receptor) or [¹²⁵I]PYY(3-36) (Y2 receptor), (each ˜2200 Ci/mmol, New England Nuclear) in Buffer B, with or without 0.05 ml a solution (ranging from 0.01 nM -1000 nM) of an unlabeled competing peptide. After a 120 min incubation (25° C.), the bound radioligand was separated from the free by rapid filtration through GF/C filters, previously soaked in 0.3% polyethyleneimine. […] Inhibition constants (K₁,) were calculated using the well-known Cheng-Prusoff equation.

Y1 receptor = target: T2, Y1 receptor; test: radioligand competition against [125I-Leu31,Pro34]PYY, SK-N-MC membranes, Cheng-Prusoff
Experimental: as §1, §2

[1] = target: T3, Y2 receptor (human), P49146
[2] = target: T4, Y1 receptor (human), P25929

Binder	Ki (Y2 receptor)	Ki (Y1 receptor)	Ki [1]	Ki [2]
B1	< 1 µM	< 2 µM		
B2	< 1 µM	< 2 µM		
B3			< 1 µM	< 2 µM
